Tests used:
HeLa Kyoto [1] = assay: thermal stability score vs G1/S (z-score of summed log2 fold changes over temperatures); higher = more thermally stable than in G1/S
HeLa Kyoto [2] = assay: melting temperature (median over replicates), in situ; higher = more thermally stable
HeLa Kyoto [3] = assay: solubility change mitosis vs G1/S (difference of NP-40 vs SDS log2 ratios) (log2 ratio difference); higher = more soluble in mitosis
HeLa Kyoto [4] = assay: solubility in G1/S (NP-40 vs SDS abundance) (log2 ratio); higher = more soluble; conditions: cell cycle stage: G1/S
[5] = cell cycle stage: early G1 (4.5 h after nocodazole release)
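For melting temperature (median over replicates), in situ in this document: HeLa Kyoto cells synchronized by double thymidine or nocodazole block, proteins quantified by TMT10plex mass spectrometry, three independent biological replicates.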
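For solubility change mitosis vs G1/S (difference of NP-40 vs SDS log2 ratios) in this document: synchronized HeLa Kyoto cells (double thymidine block for G1/S, nocodazole release for mitosis), protein amounts in NP-40 versus SDS lysates quantified by mass spectrometry, three biological replicates.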
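For solubility in G1/S (NP-40 vs SDS abundance) in this document: HeLa Kyoto cells arrested at G1/S by double thymidine block, proteins quantified by TMT10plex mass spectrometry in mild NP-40 versus SDS extracts, three biological replicates.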
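For thermal stability score vs G1/S (z-score of summed log2 fold changes over temperatures) in this document: synchronized HeLa Kyoto cells, proteins quantified by TMT10plex mass spectrometry, three biological replicates, mitosis taken 0.5 h after nocodazole release, G1/S directly after double thymidine block.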

| Sequence | thermal stability score (HeLa Kyoto [1]; [5]) | thermal stability score (HeLa Kyoto [1]; cell cycle stage: mitosis) | melting temperature (HeLa Kyoto [2]; cell cycle stage: G1/S) [°C] | melting temperature (HeLa Kyoto [2]; cell cycle stage: mitosis) [°C] | solubility change mitosis (log2) (HeLa Kyoto [3]) | solubility in G1/S (log2) (HeLa Kyoto [4]) |
| --- | --- | --- | --- | --- | --- | --- |
| MTAAENVCYTLINVPMDSEPPSEISLKNDLEKGDVKSKTEALKKVIIMILNGEKLPGLLMTIIRFVLPLQDHTIKKLLLVFWEIVPKTTPDGRLLHEMILVCDAYRKDLQHPNEFIRGSTLRFLCKLKEAELLEPLMPAIRACLEHRHSYVRRNAVLAIYTIYRNFEHLIPDAPELIHDFLVNEKDASCKRNAFMMLIHADQDRALDYLSTCIDQVQTFGDILQLVIVELIYKVCHANPSERARFIRCIYNLLQSSSPAVKYEAAGTLVTLSSAPTAIKAAAQCYIDLIIKESDNNVKLIVLDRLIELKEHPAHERVLQDLVMDILRVLSTPDLEVRKKTLQLALDLVSSRNVEELVIVLKKEVIKTNNVSEHEDTDKYRQLLVRTLHSCSVRFPDMAANVIPVLMEFLSDNNEAAAADVLEFVREAIQRFDNLRMLIVEKMLEVFHAIKSVKIYRGALWILGEYCSTKEDIQSVMTEIRRSLGEIPIVESEIKKEAGELKPEEEITVGPVQKLVTEMGTYATQSALSSSRPTKKEEDRPPLRGFLLDGDFFVAASLATTLTKIALRYVALVQEKKKQNSFVAEAMLLMATILHLGKSSLPKKPITDDDVDRISLCLKVLSECSPLMNDIFNKECRQSLSHMLSAKLEEEKLSQKKESEKRNVTVQPDDPISFMQLTAKNEMNCKEDQFQLSLLAAMGNTQRKEAADPLASKLNKVTQLTGFSDPVYAEAYVHVNQYDIVLDVLVVNQTSDTLQNCTLELATLGDLKLVEKPSPLTLAPHDFANIKANVKVASTENGIIFGNIVYDVSGAASDRNCVVLSDIHIDIMDYIQPATCTDAEFRQMWAEFEWENKVTVNTNMVDLNDYLQHILKSTNMKCLTPEKALSGYCGFMAANLYARSIFGEDALANVSIEKPIHQGPDAAVTGHIRIRAKSQGMALSLGDKINLSQKKTSI [COPB1] | 0.105 | 1.39 | 51.8 | 51.7 | -0.197 | -0.149 |
| MRRFLRPGHDPVRERLKRDLFQFNKTVEHGFPHQPSALGYSPSLRILAIGTRSGAIKLYGAPGVEFMGLHQENNAVTQIHLLPGQCQLVTLLDDNSLHLWSLKVKGGASELQEDESFTLRGPPGAAPSATQITVVLPHSSCELLYLGTESGNVFVVQLPAFRALEDRTISSDAVLQRLPEEARHRRVFEMVEALQEHPRDPNQILIGYSRGLVVIWDLQGSRVLYHFLSSQQLENIWWQRDGRLLVSCHSDGSYCQWPVSSEAQQPEPLRSLVPYGPFPCKAITRILWLTTRQGLPFTIFQGGMPRASYGDRHCISVIHDGQQTAFDFTSRVIGFTVLTEADPAATFDDPYALVVLAEEELVVIDLQTAGWPPVQLPYLASLHCSAITCSHHVSNIPLKLWERIIAAGSRQNAHFSTMEWPIDGGTSLTPAPPQRDLLLTGHEDGTVRFWDASGVCLRLLYKLSTVRVFLTDTDPNENFSAQGEDEWPPLRKVGSFDPYSDDPRLGIQKIFLCKYSGYLAVAGTAGQVLVLELNDEAAEQAVEQVEADLLQDQEGYRWKGHERLAARSGPVRFEPGFQPFVLVQCQPPAVVTSLALHSEWRLVAFGTSHGFGLFDHQQRRQVFVKCTLHPSDQLALEGPLSRVKSLKKSLRQSFRRMRRSRVSSRKRHPAGPPGEAQEGSAKAERPGLQNMELAPVQRKIEARSAEDSFTGFVRTLYFADTYLKDSSRHCPSLWAGTNGGTIYAFSLRVPPAERRMDEPVRAEQAKEIQLMHRAPVVGILVLDGHSVPLPEPLEVAHDLSKSPDMQGSHQLLVVSEEQFKVFTLPKVSAKLKLKLTALEGSRVRRVSVAHFGSRRAEDYGEHHLAVLTNLGDIQVVSLPLLKPQVRYSCIRREDVSGIASCVFTKYGQGFYLISPSEFERFSLSTKWLVEPRCLVDSAETKNHRPGNGAGPKKAPSRARNSGTQSDGEEKQPGLVMERALLSDERVLKEIQSTLEGDRGSGNWRSHRAAVGCSLSNGGAE [LLGL2] | -1.83 | -2.52 | 51.1 | 51.5 | -0.0143 | -0.27 |
| MIHSLFLINCSGDIFLEKHWKSVVSQSVCDYFFEAQEKAADVENVPPVISTPHHYLISIYRDKLFFVSVIQTEVPPLFVIEFLHRVADTFQDYFGECSEAAIKDNVVIVYELLEEMLDNGFPLATESNILKELIKPPTILRSVVNSITGSSNVGDTLPTGQLSNIPWRRAGVKYTNNEAYFDVVEEIDAIIDKSGSTVFAEIQGVIDACIKLSGMPDLSLSFMNPRLLDDVSFHPCIRFKRWESERVLSFIPPDGNFRLISYRVSSQNLVAIPVYVKHSISFKENSSCGRFDITIGPKQNMGKTIEGITVTVHMPKVVLNMNLTPTQGSYTFDPVTKVLTWDVGKITPQKLPSLKGLVNLQSGAPKPEENPSLNIQFKIQQLAISGLKVNRLDMYGEKYKPFKGVKYVTKAGKFQVRT [AP3M1] | 0.811 | 0.722 | 50.8 | 50.1 | -0.0783 | -0.0152 |
| MALRVVRSVRALLCTLRAVPSPAAPCPPRPWQLGVGAVRTLRTGPALLSVRKFTEKHEWVTTENGIGTVGISNFAQEALGDVVYCSLPEVGTKLNKQDEFGALESVKAASELYSPLSGEVTEINEALAENPGLVNKSCYEDGWLIKMTLSNPSELDELMSEEAYEKYIKSIEE [GCSH] | -1.2 | -1.7 | 60 | 56.8 | -0.0756 | 0.297 |
| MSASLVRATVRAVSKRKLQPTRAALTLTPSAVNKIKQLLKDKPEHVGVKVGVRTRGCNGLSYTLEYTKTKGDSDEEVIQDGVRVFIEKKAQLTLLGTEMDYVEDKLSSEFVFNNPNIKGTCGCGESFNI [ISCA1] | -0.782 | -2.35 | 52.3 | 51.9 | -0.0859 | 0.427 |
